In article PMC7239899 one finds Kd data, which are given here for one substance.

The series has as its system RpsA WT (Mycobacterium tuberculosis H37Rv). Description: MST. Conditions: MST: PBS-T/MST buffer with 0.1% Tween 20, 15 min at room temperature, 50 nM RpsA, tmRNA dilution series from 4.1 uM; EMSA buffer not given in material.

With tmRNA, the Kd stood at 58.1 nM.
